# Reference: PMC11098746 (2024)
# T1: ADP154
# T1 chain: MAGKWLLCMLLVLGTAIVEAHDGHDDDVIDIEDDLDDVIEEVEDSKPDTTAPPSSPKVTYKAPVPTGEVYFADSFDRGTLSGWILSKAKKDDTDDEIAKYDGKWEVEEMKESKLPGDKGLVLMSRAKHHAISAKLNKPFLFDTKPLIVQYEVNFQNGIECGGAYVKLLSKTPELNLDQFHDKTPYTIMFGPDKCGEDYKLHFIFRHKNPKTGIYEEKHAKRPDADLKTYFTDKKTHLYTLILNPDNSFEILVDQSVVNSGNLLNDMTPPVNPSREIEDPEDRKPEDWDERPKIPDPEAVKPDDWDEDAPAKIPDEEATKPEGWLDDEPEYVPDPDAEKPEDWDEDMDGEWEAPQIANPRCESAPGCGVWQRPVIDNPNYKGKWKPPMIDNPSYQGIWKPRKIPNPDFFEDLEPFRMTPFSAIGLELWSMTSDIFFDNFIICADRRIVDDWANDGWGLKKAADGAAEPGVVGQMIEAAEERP
# T2: ADP155
# T2 chain: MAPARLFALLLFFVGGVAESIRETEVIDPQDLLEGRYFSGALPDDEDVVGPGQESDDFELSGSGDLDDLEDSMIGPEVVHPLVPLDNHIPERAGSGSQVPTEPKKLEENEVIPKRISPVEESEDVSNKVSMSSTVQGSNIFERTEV
# T3: ADP318
# T3 chain: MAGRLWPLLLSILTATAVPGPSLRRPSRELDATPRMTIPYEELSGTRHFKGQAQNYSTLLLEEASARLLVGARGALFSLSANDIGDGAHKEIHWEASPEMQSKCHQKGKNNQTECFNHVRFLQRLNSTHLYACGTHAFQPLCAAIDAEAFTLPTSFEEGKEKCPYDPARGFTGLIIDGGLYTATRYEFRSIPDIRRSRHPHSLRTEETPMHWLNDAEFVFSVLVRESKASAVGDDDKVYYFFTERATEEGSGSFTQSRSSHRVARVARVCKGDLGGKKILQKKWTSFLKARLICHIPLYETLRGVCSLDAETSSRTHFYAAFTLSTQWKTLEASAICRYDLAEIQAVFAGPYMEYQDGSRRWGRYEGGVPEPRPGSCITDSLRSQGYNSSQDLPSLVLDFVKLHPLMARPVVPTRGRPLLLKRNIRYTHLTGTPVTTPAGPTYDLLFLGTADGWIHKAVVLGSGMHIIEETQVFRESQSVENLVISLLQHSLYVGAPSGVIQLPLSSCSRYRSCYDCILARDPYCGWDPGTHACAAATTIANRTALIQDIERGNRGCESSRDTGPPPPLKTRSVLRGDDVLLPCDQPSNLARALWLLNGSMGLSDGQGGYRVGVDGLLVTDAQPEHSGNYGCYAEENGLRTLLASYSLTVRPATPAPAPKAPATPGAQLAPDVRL
# T4: ADP385
# T4 chain: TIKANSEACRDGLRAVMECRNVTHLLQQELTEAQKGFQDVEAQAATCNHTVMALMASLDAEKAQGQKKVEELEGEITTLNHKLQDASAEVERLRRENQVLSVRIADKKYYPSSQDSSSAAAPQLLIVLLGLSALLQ
# T5: ADP378
# T5 chain: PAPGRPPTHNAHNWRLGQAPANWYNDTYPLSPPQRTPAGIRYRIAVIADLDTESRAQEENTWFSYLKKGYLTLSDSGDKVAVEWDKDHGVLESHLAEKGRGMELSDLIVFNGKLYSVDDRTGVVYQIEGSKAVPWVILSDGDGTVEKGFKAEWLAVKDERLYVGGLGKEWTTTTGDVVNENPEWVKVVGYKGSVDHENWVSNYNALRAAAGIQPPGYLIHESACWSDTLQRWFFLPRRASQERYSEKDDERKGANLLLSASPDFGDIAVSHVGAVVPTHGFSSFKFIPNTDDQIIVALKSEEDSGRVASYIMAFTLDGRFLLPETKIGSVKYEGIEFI
# T6: ADP262
# T6 chain: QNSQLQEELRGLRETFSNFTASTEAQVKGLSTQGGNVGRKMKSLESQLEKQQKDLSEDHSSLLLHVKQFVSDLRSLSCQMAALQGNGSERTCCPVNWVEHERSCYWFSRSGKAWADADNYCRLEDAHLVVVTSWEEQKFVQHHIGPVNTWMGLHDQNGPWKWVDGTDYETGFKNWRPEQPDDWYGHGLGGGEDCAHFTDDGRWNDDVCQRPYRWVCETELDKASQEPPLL
# B1: ADP243 (protein)
# chain: SDSYSTGGNEKEKIFMDNYKYMWTYIYFLQKRIMMKKLSHPLYMSKKFILLHNPKDIEEFRIPLKDTLWSYVDRNSIKGFININLDSIFDIDLKEYYVHDKENMANSEKSEDLECIDAYVQKTNEIYYNMADTKDEAYIFICKKCKHIYKDIKECREKSMQLMIQNMKITVPQIRLKYDKKNRNNEEIIINIPVTYVLSNLLSSLKKTVTYNTDDLNNACNVLIKMLHLDLLKILYNLQYHNGIFNGITEKYLIEFRNIFVKRQKTNTEDNNDMIWEECFVLKKSIDKIMNINSFLLTKSRNRYMDYLQNRRKRYRDILFMITYNVADMNLNTYIKSIYNYIHISTKIIEDIQYIYNQEVYATFFVRTELIETYLLRNPKQLKNTCSIYIMITISWFFNQINIGMYNKNKNVYDLFKEKFSKSNVKQIINSIYTNNVENKANILQICNDAMTNTIELIKKVIKNYYKQNNVLSNYNINFAGLIKFIDIQILRMKFIQSTLEKQPLIEYDTLNDDHLNNDAIIKRENMVCMMKYISNKINTYISLLKKSDLQTIMLQNYDKYNIYLDTYFTHNENVFFCSSPGQYLIIKIFFYSFFNILNIYG
# modifications: bait human Fc-tagged dimer; N-glycosylation sequons mutated in Plasmodium baits
# B2: ADP195 (protein)
# chain: FRKYDKNKNKILISHSINNNNNAIKNNNNNNNAIKNNNNNNNAIKNNNNNNNAFSATSFSSEKNKNKAYTNVLKKKNIYIREESNKATNIKEDEEKNKKINNNDKETNYAFLSLKFFPFILTSLLHTGINQIPRNTEIELYEFEKSPMIRHMLVAEERKN
# modifications: bait human Fc-tagged dimer; N-glycosylation sequons mutated in Plasmodium baits
# B3: ADP244 (protein)
# chain: GIITGKLNYFGTFSLKIFAKTYFQYKINTYSNLYSYCGISQEYNKAKSTCESCPIGTFWNSEKLLCENCQKYIENTATLKNGAKLKTDCLCSPGYEYSDKSSKCEKCKPGYYKKSVGNFICIKGCPINEKSITYGAKSYAEMDCKCIEGYYRKEDKCVLCLSNYYCPGNELIKPCDKNKISKEGVIHKNDCICKENYIKDNKNNNCVYCASIAKILGKPIYCSLCDPIYFHEDIYKNIFLLPNNIHNYGLINNIYNYDEDLSLQGNIMKYAYFHKTTNIERNFAHYINIKNIYHTFNNNINNYDYLTNSKFAIEIDIPEPKKCIFCDSGYYIKKKKCISCTTKYCEGFNHNPKACPKNSVVNKMKASSIFDCSCKRGYGILNERRNAYSNTITCQICPQNFFKHIISDDSCFPCPLYTYTLNQGATSILQCLPKKGYFIYMFKSINIDYLRYKFDINTENRIYNYFENNNKIFDEDVYNFFLNKQYSKFFYNTENK
# modifications: bait human Fc-tagged dimer; N-glycosylation sequons mutated in Plasmodium baits
# B4: ADP239 (protein)
# chain: NNLDKNKNFIQYKNFKKNKAYKYKNNNNNIIIINSHSHSNSHSNSHSHSNSHSNSHSHSNSHSNSHSHSNSHSHSHSNSHSNSHSHSSTQNSLYHDTNQANFLKPTSFFLYKHHVYFNQKYKKDPNILNKLKVPRNHIFHINKCDLNYYIQNYEFFFFFPDYYEYSHLYIRLDKLFYFQRCGCDTNIKKTKKRNQNIFNNMLGMKEKDTYLQNEICDIYWNYLKDDNTYDKYNFAIINYIKNIIKKMYRYLYIYKVFVLKQFYRIVYYNQGIRNFYYMLFSYIYNKGSIIYNYNQMYFKKHRKKQTIIRSKRFMNEHIKEEDVDYNIVKDEKDKSIQSTEQKSYLKNNAIQYFQCFLDKAMENKNAENELDKWIDPQSKSCYCSEEFAEPCTSEDLVDINNINQIMDNAFCEYNNNDNNNNDNNKNNNNNINNIINIYDNNILGDNVKNIFVALSEYKILQCNDKEKKDIIKKEQLYNYCKYGLNIWDNKNMYDYLNCLNVISYNKKDDKTCIRKCENIKKLCNIVAQFYSFEVCKKYYENNKHTEDIYINNFKYFSDHCKYIDPTNRGLVLCKHKNVECVYSQWSEWSTCSKTCIENEYDTNSARTRTRILLNKFEVPSKSCSFIINEKNNLMDINFCSYLPFCNKNNDMKKKDDERIMPFVISIKEIEKLNTLKYLNNDDNDLLNENYKNYESVHKNNECKVTDMYQYEYAISYNEKNKACSCPNNQAPCYFKDIYNSESWKKSLHILCKHNPHINVITADYIIIDCNMAISIKKKEIAVNTYLAMTFNCHSDIFQYIFCAKNIQSIRTN
# modifications: bait human Fc-tagged dimer; N-glycosylation sequons mutated in Plasmodium baits
# Experiments:
# Assay in all cases: AVEXIS screen signal:noise (double-corrected)
# ADP154 = molecular target: T1, ADP154
# ADP155 = molecular target: T2, ADP155
# ADP318 = molecular target: T3, ADP318
# ADP385 = molecular target: T4, ADP385
# ADP378 = molecular target: T5, ADP378
# ADP262 = molecular target: T6, ADP262
binder,measurement,setting,value
B1,binding score,ADP154,8.73
same,binding score,ADP155,8.67
B2,binding score,ADP318,5.72
same,binding score,ADP385,18.7
B3,binding score,ADP378,6.32
B4,binding score,ADP262,6.08
